In US20140057807A1 (UNIVERSITY OF CHICAGO, published 2014):
Changes are numbered by the printed parent chain.

T1: human Abl SH2 domain (human, UniProt P00519 112-232, limits assumed)
T1 construct: domain: SH2 domain; poly-histidine tagged in selection; tag cleaved for SPR and crystals; also called Ab1SH2; SH2 domain of Abl kinase
T1 sequence (looked up): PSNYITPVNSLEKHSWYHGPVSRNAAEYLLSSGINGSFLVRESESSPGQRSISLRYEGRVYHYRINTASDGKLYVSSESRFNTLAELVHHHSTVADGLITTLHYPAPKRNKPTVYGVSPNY

B1: SEQ ID NO 34 (designed binder)
chain: VSSVPTKLEVVAATPTSLLISWDAPAVTVHYYVITYGETGWWGPVQEFTVPGSKSTATISGLSPGVDYTITVYAYWKYSYKYSPISINYRT
B2: SEQ ID NO 40 (designed binder)
chain: B1 chain with T28Y, V29H, H30Y, Y31V, V33L, W41G, W42N, G43S, Y75K, K81Q
B3: SEQ ID NO 43 (designed binder)
chain: B1 chain with H30V, Y31H, V33H, W41G, W42N, G43S, Y75D, K77Q, K81M
B4: SEQ ID NO 262 (designed binder)
chain: NVSPPRSARVTDATETTITISWRTKTETITYFVVGAFPAYSAHVDIQRTIKPDVRSYTITGLQPGTGYIINLETLINATGYPVVIDAST
B5: SEQ ID NO 263 (designed binder)
chain: NVSPPRRARVTDATETTITISWRTKTETITQFWVLAGPSVWTGRMSIQRTIKPDVRSYTITGLQPGTTYYIGLYTLQYYEYSPVVIDAST
B6: SEQ ID NO 264 (designed binder)
chain: NVSPPRRARVTDATETTITISWRTKTETITTFRVWARPYLYYWIQRTIKPDVRSYTITGLQPGTHYDIGLSTLSSTWYYPVVIDAST
B7: SEQ ID NO 265 (designed binder)
chain: NVSPPRRARVTDATETTITISWRTKTETITYFHVNAQPSSPPWIQRTIKPDVRSYTITGLQPGTYYGISLYTLSWRGEYHPVVIDAST
B8: SEQ ID NO 266 (designed binder)
chain: NVSPPRRARVTDATETTITISWRTKTETITRFSVLAYPSKRTTYTPIQRTIKPDVRSYTITGLQPGTGYTIRLYTLSPYYWVYPVVIDAST
B9: SEQ ID NO 267 (designed binder)
chain: NVSPPRRARVTDATETTITISWRTKTETITWFYVSAFPLLVDGIQRTIKPDVRSYTITGLQPGTYYGINLYTLSSYPVVIDAST
B10: SEQ ID NO 268 (designed binder)
chain: NVSPPRRARVTDATETTITISWRTKTETITYFYVYAKPRYINSIQRTIKPDVRSYTITGLQPGTDYSIYLDTLYWGGEYGPVVIDAST
B11: SEQ ID NO 269 (designed binder)
chain: NVSPPRRARVTDATETTITISWRTKTETITAFNVYASPEYWRYGYFRFIQRTIKPDVRSYTITGLQPGTGYYIYLYTLYHKYGYYPVVIDAST
B12: SEQ ID NO 270 (designed binder)
chain: NVSPPRRARVTDATETTITISWRTKTETITAFYVHAVPMLWVVNGIQRTIKPDVRSYTITGLQPGTSYTINLETLRMSSHYYPVVIDAST
B13: SEQ ID NO 271 (designed binder)
chain: NVSPPRRARVTDATETTITISWRTKTETITSFYVRALPVSAWPIQRTIKPDVRSYTITGLQPGTGYNIGLVTLYYGASYVPVVIDAST
B14: SEQ ID NO 272 (designed binder)
chain: NVSPPRRARVTDATETTITISWRTKTETITAFYVGAHPWYNLEIQRTIKPDVRSYTITGLQPGTGYVISLYTLWHHNEAPVVIDAST
B15: SEQ ID NO 273 (designed binder)
chain: NVSPPRRARVTDATETTITISWRTKTETITSFWVHAYPSGASGGIQRTIKPDVRSYTITGLQPGTNYGIALATLTHYYTYSPVVIDAST
B16: SEQ ID NO 274 (designed binder)
chain: NVSPPRRARVTDATETTITISWRTKTETITGFHVFASPWYSGSQSIQRTIKPDVRSYTITGLQPGTTYYIGLNTLYIPGHEPPVVIDAST
B17: SEQ ID NO 275 (designed binder)
chain: NVSPPRRARVTDATETTITISWRTKTETITSFYVDAGPWYRPDAYEYIQRTIKPDVRSYTITGLQPGTGYSIQLYTLYAYAYLYPVVIDAST
B18: SEQ ID NO 276 (designed binder)
chain: NVSPPRRARVTDATETTITISWRTKTETITLFYVYAYPRYYPGIQRTIKPDVRSYTITGLQPGTSYSIYLSTLWDTKGYPVVIDAST
B19: SEQ ID NO 277 (designed binder)
chain: NVSPPRRARVTDATETTITISWRTKTETITTFMVVAYPMFQYRIQRTIKPDVRSYTITGLQPGTSYTIYLQTLGYASWYPVVIDAST
B20: SEQ ID NO 12 (designed binder)
chain: VSSVPTKLEVVAATPTSLLISWDAPAVTVDHYNITYGETGAFWHYVQAFTVPGSKSTATISGLSPGVDYTITVYAEWDQYVVGSPISINYRT
B21: SEQ ID NO 13 (designed binder)
chain: VSSVPTKLEVVAATPTSLLISWDAPAVTVDYYVITYGETGGGYYSFQAFEVPGSKSTATISGLSPGVDYTITVYAFWPDDYYYGGSEYSPISINYRT
B22: SEQ ID NO 14 (designed binder)
chain: VSSVPTKLEVVAATPTSLLISWDAPAVTVDHYHITYGETGGSWSGYQEFTVPGSKSTATISGLSPGVDYTITVYANSSWYWYNPISINYRT
B23: SEQ ID NO 15 (designed binder)
chain: VSSVPTKLEVVAATPTSLLISWDAPAVTVDHYVITYGETGAHYYYFQEFEVPGSKSTATISGLSPGVDYTITVYAVSHGTDGNKLYFFSPISINYRT
B24: SEQ ID NO 17 (designed binder)
chain: VSSVPTKLEVVAATPTSLLISWDAPAVTVDYYVITYGETGWYSPPQEFTVPGSKSTATISGLSPGVDYTITVYAWNWSAGLQSPISINYRT
B25: SEQ ID NO 18 (designed binder)
chain: VSSVPTKLEVVAATPTSLLISWDAPAVTVDYYVITYGETGGNSPVQEFTVPGSKSTATISGLSPGVDYTITVYAWSWKYWYHGSPISINYRT
B26: SEQ ID NO 19 (designed binder)
chain: VSSVPTKLEVVAATPTSLLISWDAPAVTVDFYIITYGETGGGYYSYQTFTVPGSKSTATISGLSPGVDYTITVYANEFGKSYPYTMNPISINYRT
B27: SEQ ID NO 28 (designed binder)
chain: VSSVPTKLEVVAATPTSLLISWDAPAVTVDHYVITYGETGGYPSPVQTFTVPGSKSTATISGLSPGVDYTITVYAWDYDWYAIGSPISINYRT
B28: SEQ ID NO 29 (designed binder)
chain: VSSVPTKLEVVAATPTSLLISWDAPAVTVVYYVITYGETGGNSPVQEFTVPGSKSTATISGLSPGVDYTITVYAWYTFQYDYYVTQSSPISINYRT
B29: SEQ ID NO 33 (designed binder)
chain: B28 chain with V30D, V33Y, T77Q, F78H, Q79D, Y80F, Y83H, T85W, Q86G
B30: SEQ ID NO 30 (designed binder)
chain: B25 chain with Y31F, V33F, S76D, W77N, K78W, Y79D, W80D, H82Y, G83Y
B31: SEQ ID NO 31 (designed binder)
chain: VSSVPTKLEVVAATPTSLLISWDAPAVTVVFYVITYGETGSYSGWQEFEVPGSKSTATISGLSPGVDYTITVYAYYYQNPESYYSPISINYRT
B32: SEQ ID NO 32 (designed binder)
chain: VSSVPTKLEVVAATPTSLLISWDAPAVTVDLYFITYGETGGNSPVQEFTVPGSKSTATISGLSPGVDYTITVYAWYYGYYGPQYTSPISINYRT
B33: SEQ ID NO 35 (designed binder)
chain: B1 chain with H30D, W41A, W42F, P44S, V45G, T49E, Y75K, K77M, K81M, S83N
B34: SEQ ID NO 36 (designed binder)
chain: VSSVPTKLEVVAATPTSLLISWDAPAVTVVYYFITYGETGGNSPVQEFTVPGSKSTATISGLSPGVDYTITVYAWSYELTGDYLQQFSPISINYRT
B35: SEQ ID NO 37 (designed binder)
chain: VSSVPTKLEVVAATPTSLLISWDAPAVTVVYYNITYGETGGNSPVQEFTVPGSKSTATISGLSPGVDYTITVYAWYEYGGYMEIDSPISINYRT
B36: SEQ ID NO 41 (designed binder)
chain: B35 chain with V30D, N33Y, E77W, Y78N, G79D, G80Y, E83S, I84S, D85M
B37: SEQ ID NO 38 (designed binder)
chain: VSSVPTKLEVVAATPTSLLISWDAPAVTVDYYVITYGETGVPYYGWQEFEVPGSKSTATISGLSPGVDYTITVYAYPGSNWFYDWWSPISINYRT
B38: SEQ ID NO 39 (designed binder)
chain: VSSVPTKLEVVAATPTSLLISWDAPAVTVDFYVITYGETGSYGSYPQAFEVPGSKSTATISGLSPGVDYTITVYTESEGYISSSPISINYRT
B39: SEQ ID NO 42 (designed binder)
chain: VSSVPTKLEVVAATPTSLLISWDAPAVTVDYYVITYGETGGNSPVQEFEVPGSKSTATISGLSPGVDYTITVYATYGDAYWHYYYSPISINYRT

How the values were obtained:
human Abl SH2 domain = biological target: T1, human Abl SH2 domain; test: phage display selection hit, BL1 library
human serum albumin = biological target: T2, human serum albumin (human, UniProt P02768 25-609); test: cradle library selection hit
T2 construct: also called HSA
T2 sequence (P02768 25-609 limits assumed): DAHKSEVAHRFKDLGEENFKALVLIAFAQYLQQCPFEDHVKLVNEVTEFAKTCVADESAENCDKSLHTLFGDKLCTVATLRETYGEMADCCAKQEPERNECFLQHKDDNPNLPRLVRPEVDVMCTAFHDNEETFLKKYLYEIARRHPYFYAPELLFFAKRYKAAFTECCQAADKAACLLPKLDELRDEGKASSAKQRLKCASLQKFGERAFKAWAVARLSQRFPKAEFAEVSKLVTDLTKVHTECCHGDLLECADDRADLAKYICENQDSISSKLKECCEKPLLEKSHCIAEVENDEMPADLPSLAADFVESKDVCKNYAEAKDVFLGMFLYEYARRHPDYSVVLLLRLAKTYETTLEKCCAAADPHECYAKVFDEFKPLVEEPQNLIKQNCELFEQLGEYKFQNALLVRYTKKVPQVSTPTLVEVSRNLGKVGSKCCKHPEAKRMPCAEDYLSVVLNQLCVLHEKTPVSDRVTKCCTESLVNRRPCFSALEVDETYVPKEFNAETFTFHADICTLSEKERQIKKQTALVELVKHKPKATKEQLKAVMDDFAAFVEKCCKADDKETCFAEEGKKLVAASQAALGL

human ubiquitin = human ubiquitin (human, UniProt P0CG48 1-76); test: phage display selection hit, BL1 library

Binder	binding result (human Abl SH2 domain)	binding result (human serum albumin)	further results
B1	binds		
B2	binds		
B3	binds		
B4		binds	
B5		binds	
B6		binds	
B7		binds	
B8		binds	
B9		binds	
B10		binds	
B11		binds	
B12		binds	
B13		binds	
B14		binds	
B15		binds	
B16		binds	
B17		binds	
B18		binds	
B19		binds	
B20			binding result (human ubiquitin): binds

Binder	binding result (human Abl SH2 domain)	binding result (human serum albumin)	further results
B21			binding result (human ubiquitin): binds
B22			binding result (human ubiquitin): binds
B23			binding result (human ubiquitin): binds
B24			binding result (human ubiquitin): binds
B25			binding result (human ubiquitin): binds
B26			binding result (human ubiquitin): binds
B27	binds		
B28	binds		
B29	binds		
B30	binds		
B31	binds		
B32	binds		
B33	binds		
B34	binds		
B35	binds		
B36	binds		
B37	binds		
B38	binds		
B39	binds		
